This note sets out measurements from the Human Domainome abundance scans (Beltran et al. 2025).

Sequences and labels used below:
B1: Tripartite motif-containing protein 6, residues 93 to 134; numbered along this chain, Q9C030 (parent)
chain: KAVLCADHGEKLQLFCQEDGKVICWLCERSQEHRGHHTFLVE

± gives the uncertainty stated by the source.

The variants in this data set derive from B1. The data set can be described thus: abundance fitness (aPCA) (normalised: wild type 0, dead -1); higher = more abundant; growth selection in yeast, the domain comes from the species named. Conditions: Homo sapiens.
For KAVLCADHGEKLQLFCQEDGKVICWTCERSQEHRGHHTFLVE [L26T], the abundance fitness was -0.011 ± 0.094. Consider KAVLCADHGEKLQLFCQEDGKVICWSCERSQEHRGHHTFLVE [L26S], for which the abundance fitness was -0.059 ± 0.091. For the variant KAVLCADHGEKLQLFCQEDGKVICWLCERSQEHAGHHTFLVE [R34A], the abundance fitness was -0.007 ± 0.062. KAVLCADHGEKLQLFCQEDGKVICWLCERSQEHLGHHTFLVE [R34L]: the abundance fitness was 0.092 ± 0.083.

On to KAVLCADHGEKLQLFCQEDGKVICWLCERSQEHPGHHTFLVE [R34P], for which the abundance fitness was -0.386 ± 0.14. Take KAVLCADHGEKLQLFCQEDGKVICWLCERSQEHFGHHTFLVE [R34F]: the abundance fitness came out at 0.058 ± 0.23. The value for KAVLCADHGEKLQLFCQEDGKVICWLCERSQEHMGHHTFLVE [R34M] was -0.052 ± 0.17; that for KAVLCADHGEKLQLFCQEDGKVICWLCERSQEHTGHHTFLVE [R34T] was 0.071 ± 0.072. As to KAVLCADHGEKLQLFCQEDGKVICWLCERSQEHGGHHTFLVE [R34G], the abundance fitness is -0.161 ± 0.055. On to KAVLCADHGEKLQLFCQEDGKVICWLCERSQEHEGHHTFLVE [R34E], for which the abundance fitness was -0.05 ± 0.076. Regarding KAVLCADHGEKLQLFCQEDGKVICWLCERSQEHKGHHTFLVE [R34K], the abundance fitness was -0.111 ± 0.084. The figure for KAVLCADHGEKLQLFCQEDGKVICWLCERSQEHQGHHTFLVE [R34Q] is -0.041 ± 0.074. The figure for KAVLCADHGEKLQLFCQEDGKVICWLCERSQEHHGHHTFLVE [R34H] is 0.102 ± 0.062; for KAVLCADHGEKLQLFCQEDGKVICWLCERSQEHYGHHTFLVE [R34Y] it is 0.155 ± 0.1. For KAVLCADHGEKLQLFCQEDGKVICWLCERSQEHNGHHTFLVE [R34N], the abundance fitness is -0.058 ± 0.12. As to KAVLCADHGEKLQLFCQEDGKVICWLCERSQEHSGHHTFLVE [R34S], the abundance fitness is -0.035 ± 0.068.

On to KAVLCADHGEKLQLFCQEDGKVICWLCERSQEHCGHHTFLVE [R34C], for which the abundance fitness was -0.14 ± 0.07.

As to KAVLCADHGEKLQLFCQEDGKVICWLCERSQEHVGHHTFLVE [R34V], the abundance fitness amounted to 0.035 ± 0.053. The figure for KAVLCADHGEKLQLFCQEDGKVICWLGERSQEHRGHHTFLVE [C27G] is -0.66 ± 0.082; for KAVLCADHGEKLQLFCQEDGKVICWLPERSQEHRGHHTFLVE [C27P] it is -0.536 ± 0.35. The value for KAVLCADHGEKLQLFCQEDGKVICWLLERSQEHRGHHTFLVE [C27L] was -0.8 ± 0.19. The value for KAVLCADHGEKLQLFCQEDGKVICWLVERSQEHRGHHTFLVE [C27V] was -1.32 ± 0.35.

For KAVLCADHGEKLQLFCQEDGKVICWLQERSQEHRGHHTFLVE [C27Q], the abundance fitness was -0.969 ± 0.24. The figure for KAVLCADHGEKLQLFCQEDGKVICWLEERSQEHRGHHTFLVE [C27E] is -0.863 ± 0.1. The figure for KAVLCADHGEKLQLFCQEDGKVICWLAERSQEHRGHHTFLVE [C27A] is -0.755 ± 0.1; for KAVLCADHGEKLQLFCQEDGKVICWLTERSQEHRGHHTFLVE [C27T] it is -0.882 ± 0.35; for KAVLCADHGEKLQLFCQEDGKVICWLRERSQEHRGHHTFLVE [C27R] it is -0.603 ± 0.079. The figure for KAVLCADHGEKLQLFCQEDGKVICWLKERSQEHRGHHTFLVE [C27K] is -1.14 ± 0.22; for KAVLCADHGEKLQLFCQEDGKVICWLSERSQEHRGHHTFLVE [C27S] it is -1.1 ± 0.27. In the case of KAVLCADHGEKLQLFCQEDGKVICWLCERSVEHRGHHTFLVE [Q31V], the abundance fitness is 0.004 ± 0.074. The figure for KAVLCADHGEKLQLFCQEDGKVICWLCERSLEHRGHHTFLVE [Q31L] is -0.343 ± 0.088; for KAVLCADHGEKLQLFCQEDGKVICWLCERSYEHRGHHTFLVE [Q31Y] it is -0.371 ± 0.27.

With KAVLCADHGEKLQLFCQEDGKVICWLCERSTEHRGHHTFLVE [Q31T], the abundance fitness was -0.045 ± 0.073.

For the variant KAVLCADHGEKLQLFCQEDGKVICWLCERSGEHRGHHTFLVE [Q31G], the abundance fitness is -0.083 ± 0.055. With KAVLCADHGEKLQLFCQEDGKVICWLCERSCEHRGHHTFLVE [Q31C], the abundance fitness is -0.095 ± 0.12. For the variant KAVLCADHGEKLQLFCQEDGKVICWLCERSAEHRGHHTFLVE [Q31A], the abundance fitness was -0.121 ± 0.049. The figure for KAVLCADHGEKLQLFCQEDGKVICWLCERSMEHRGHHTFLVE [Q31M] is -0.057 ± 0.07; for KAVLCADHGEKLQLFCQEDGKVICWLCERSHEHRGHHTFLVE [Q31H] it is -0.125 ± 0.083. On to KAVLCADHGEKLQLFCQEDGKVICWLCERSEEHRGHHTFLVE [Q31E], for which the abundance fitness is -0.159 ± 0.08.

For KAVLCADHGEKLQLFCQEDGKVICWLCERSDEHRGHHTFLVE [Q31D], the abundance fitness is -0.228 ± 0.14. KAVLCADHGEKLQLFCQEDGKVICWLCERSKEHRGHHTFLVE [Q31K]: the abundance fitness was -0.103 ± 0.11. KAVLCADHGEKLQLFCQEDGKVICWLCERSPEHRGHHTFLVE [Q31P]: the abundance fitness is -0.167 ± 0.13. Consider KAVLCADHGEKLQLFCQEDGKVICWLCERSSEHRGHHTFLVE [Q31S], for which the abundance fitness is -0.031 ± 0.084. Turning to KAVLCADHGEKLQLFCQEDGKVICWLCERSWEHRGHHTFLVE [Q31W], the abundance fitness was -0.593 ± 0.09. As for KAVLCADHGEKLQLFCQEDGKVICWLCYRSQEHRGHHTFLVE [E28Y], the abundance fitness is -0.362 ± 0.11. The value for KAVLCADHGEKLQLFCQEDGKVICWLCCRSQEHRGHHTFLVE [E28C] was -0.494 ± 0.14.

Turning to KAVLCADHGEKLQLFCQEDGKVICWLCHRSQEHRGHHTFLVE [E28H], the abundance fitness was -0.481 ± 0.11.

Take KAVLCADHGEKLQLFCQEDGKVICWLCWRSQEHRGHHTFLVE [E28W]: the abundance fitness is -0.319 ± 0.079. The value for KAVLCADHGEKLQLFCQEDGKVICWLCARSQEHRGHHTFLVE [E28A] was -0.218 ± 0.053; that for KAVLCADHGEKLQLFCQEDGKVICWLCGRSQEHRGHHTFLVE [E28G] was -0.197 ± 0.045; that for KAVLCADHGEKLQLFCQEDGKVICWLCSRSQEHRGHHTFLVE [E28S] was -0.116 ± 0.059. The value for KAVLCADHGEKLQLFCQEDGKVICWLCMRSQEHRGHHTFLVE [E28M] was -0.326 ± 0.074. The figure for KAVLCADHGEKLQLFCQEDGKVICWLCDRSQEHRGHHTFLVE [E28D] is -0.101 ± 0.087; for KAVLCADHGEKLQLFCQEDGKVICWLCTRSQEHRGHHTFLVE [E28T] it is 0.059 ± 0.099; for KAVLCADHGEKLQLFCQEDGKVICWLCQRSQEHRGHHTFLVE [E28Q] it is -0.124 ± 0.061.

On to KAVLCADHGEKLQLFCQEDGKVICWLCKRSQEHRGHHTFLVE [E28K], for which the abundance fitness was -0.062 ± 0.066. The figure for KAVLCADHGEKLQLFCQEDGKVICWLCLRSQEHRGHHTFLVE [E28L] is -0.272 ± 0.057; for KAVLCADHGEKLQLFCQEDGKVICWLCVRSQEHRGHHTFLVE [E28V] it is -0.19 ± 0.066. The value for KAVLCADHGEKLQLFCQEDGKVICWLCPRSQEHRGHHTFLVE [E28P] was -0.376 ± 0.075; that for KAVLCADHGEKLQLFCQEDGKVICWLCIRSQEHRGHHTFLVE [E28I] was -0.414 ± 0.17.
